The target of the data set is CD44, P16070.

The record followed here is patent US20130012451.

CD44, P16070, sequence (P16070 other isoform, or with tags, fused parts or gaps): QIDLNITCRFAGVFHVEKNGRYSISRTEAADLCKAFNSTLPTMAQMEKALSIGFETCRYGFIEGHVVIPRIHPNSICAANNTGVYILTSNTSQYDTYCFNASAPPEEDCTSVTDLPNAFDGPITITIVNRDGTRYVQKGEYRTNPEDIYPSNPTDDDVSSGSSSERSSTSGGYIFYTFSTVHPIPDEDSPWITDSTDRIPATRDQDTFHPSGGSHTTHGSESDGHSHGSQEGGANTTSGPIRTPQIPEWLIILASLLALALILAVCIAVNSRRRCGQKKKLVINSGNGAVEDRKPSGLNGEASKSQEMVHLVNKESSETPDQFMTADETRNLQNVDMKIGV

B1: Matrix Metalloproteinase-9 (MMP-9), wild type (protein)
chain: APRQRQSTLVLFPGDLRTNLTDRQLAEEYLYRYGYTRVAEMRGESKSLGPALLLLQKQLSLPETGELDSATLKAMRTPRCGVPDLGRFQTFEGDLKWHHHNITYWIQNYSEDLPRAVIDDAFARAFALWSAVTPLTFTRVYSRDADIVIQFGVAEHGDGYPFDGKDGLLAHAFPPGPGIQGDAHFDDDELWSLGKGVVVPTRFGNADGAACHFPFIFEGRSYSACTTDGRSDGLPWCSTTANYDTDDRFGFCPSERLYTQDGNADGKPCQFPFIFQGQSYSACTTDGRSDGYRWCATTANYDRDKLFGFCPTRADSTVMGGNSAGELCVFPFTFLGKEYSTCTSEGRGDGRLWCATTSNFDSDKKWGFCPDQGYSLFLVAAHEFGHALGLDHSSVPEALMYPMYRFTEGPPLHKDDVNGIRHLYGPRPEPEPRPPTTTTPQPTAPPTVCPTGPPTVHPSERPTAGPTGPPSAGPTGPPTAGPSTATTVPLSPVDDACNVNIFDAIAEIGNQLYLFKDGKYWRFSEGRGSRPQGPFLIADKWPALPRKLDSVFEERLSKKLFFFSGRQVWVYTGASVLGPRRLDKLGLGADVAQVTGALRSGRGKMLLFSGRRLWRFDVKAQMVDPRSASEVDRMFPGVPLDTHDVFQYREKAYFCQDRFYWRVSSRSELNQVDQVGYVTYDILQCPED
For the protein B1, the “phosphorylation of EGFR, western blotting” value is “expression of MMP-9 in wild type COS-1 cells resulted in increased phosphorylation of EGFR as compared to vector control. This activation of EGFR did not occurred in CD44-silenced COS-1 cells transfected with MMP-9 cDNA”.
